According to patent US8026218:
Like-named read-outs stand apart in the source and are kept apart here.

How the values were obtained:
[1] = target: human δ opioid receptor (human) (UniProt P41143); assay: cell-based or functional assay
[2] = target: rat µ opioid receptor (rat) (UniProt P33535); assay: cell-based or functional assay
[3] = target: rat µ opioid receptor (rat) (UniProt P33535); assay: competition vs [3H]DAMGO, rMOR cell membranes
[4] = target: human δ opioid receptor (human) (UniProt P41143); assay: competition vs [3H]DPDPE, hDOR cell membranes
[5] = target: human NK1 receptor (human) (UniProt P25103); assay: competition vs [3H]Substance P, hNK1 CHO cell membranes
rat NK1 receptor (rat) [6] = target: rat NK1 receptor (rat) (UniProt P14600); assay: competition vs [3H]Substance P, rNK1 CHO cell membranes
[7] = target: δ opioid receptor of the mouse isolated vas deferens (mouse) (UniProt P32300); assay: cell-based or functional assay
[8] = target: guinea pig NK1 receptor (guinea pig) (UniProt P30547); assay: cell-based or functional assay
[9] = target: µ opioid receptor of the guinea pig isolated ileum (guinea pig) (UniProt P97266); assay: cell-based or functional assay
[10] = target: human δ opioid receptor (human) (UniProt P41143); assay: radioligand saturation, hDOR membranes
[11] = target: rat µ opioid receptor (rat) (UniProt P33535); assay: cell-based or functional assay; remark: listed apart in the source
[12] = target: rat µ opioid receptor (rat) (UniProt P33535); assay: radioligand saturation, rMOR membranes
[13] = target: human δ opioid receptor (human) (UniProt P41143); assay: radioligand saturation, hDOR cell membranes
[14] = target: rat µ opioid receptor (rat) (UniProt P33535); assay: radioligand competition vs [3H]DAMGO, membranes of rMOR cells
[15] = target: human δ opioid receptor (human) (UniProt P41143); assay: radioligand competition vs [3H]DPDPE, membranes of hDOR cells
[16] = target: human NK1 receptor (human) (UniProt P25103); assay: radioligand competition vs [3H]substance P, membranes of hNK1 CHO cells
rat NK1 receptor (rat) [17] = target: rat NK1 receptor (rat) (UniProt P14600); assay: radioligand competition vs [3H]substance P, membranes of rNK1 CHO cells

Sequence of rat µ opioid receptor (rat) (P33535 whole entry): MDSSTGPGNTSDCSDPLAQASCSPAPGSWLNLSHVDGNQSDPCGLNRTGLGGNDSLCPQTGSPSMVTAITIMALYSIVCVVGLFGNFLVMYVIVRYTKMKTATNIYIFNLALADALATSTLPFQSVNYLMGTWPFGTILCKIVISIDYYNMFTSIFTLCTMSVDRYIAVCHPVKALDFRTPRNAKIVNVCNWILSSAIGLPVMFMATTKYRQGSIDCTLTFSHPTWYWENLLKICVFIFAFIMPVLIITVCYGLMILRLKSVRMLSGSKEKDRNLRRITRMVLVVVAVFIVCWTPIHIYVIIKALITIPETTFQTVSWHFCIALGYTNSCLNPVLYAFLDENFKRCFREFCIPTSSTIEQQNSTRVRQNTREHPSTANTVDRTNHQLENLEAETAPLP
Sequence of δ opioid receptor of the mouse isolated vas deferens (mouse) (P32300 whole entry, stated change not applied): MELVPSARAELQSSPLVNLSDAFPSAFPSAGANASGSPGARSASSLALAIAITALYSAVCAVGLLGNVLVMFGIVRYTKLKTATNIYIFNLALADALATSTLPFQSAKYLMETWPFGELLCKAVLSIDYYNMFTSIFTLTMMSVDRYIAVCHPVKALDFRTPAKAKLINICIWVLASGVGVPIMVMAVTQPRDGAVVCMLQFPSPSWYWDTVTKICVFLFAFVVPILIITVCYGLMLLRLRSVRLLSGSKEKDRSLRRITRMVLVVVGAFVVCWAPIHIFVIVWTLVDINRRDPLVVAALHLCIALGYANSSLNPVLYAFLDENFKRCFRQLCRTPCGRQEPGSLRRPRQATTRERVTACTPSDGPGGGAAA
Sequence of human δ opioid receptor (human) (P41143 whole entry, stated change not applied): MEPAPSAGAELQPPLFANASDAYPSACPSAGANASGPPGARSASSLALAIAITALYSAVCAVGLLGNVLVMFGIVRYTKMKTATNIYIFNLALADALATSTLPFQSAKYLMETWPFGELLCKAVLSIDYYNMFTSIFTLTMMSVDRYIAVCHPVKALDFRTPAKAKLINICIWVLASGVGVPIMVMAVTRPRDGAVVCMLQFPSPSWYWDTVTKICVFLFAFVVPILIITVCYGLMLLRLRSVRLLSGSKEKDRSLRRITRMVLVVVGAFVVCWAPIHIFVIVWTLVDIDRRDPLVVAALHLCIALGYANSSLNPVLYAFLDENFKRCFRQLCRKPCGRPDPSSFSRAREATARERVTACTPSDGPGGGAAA
Sequence of human NK1 receptor (human) (P25103 whole entry): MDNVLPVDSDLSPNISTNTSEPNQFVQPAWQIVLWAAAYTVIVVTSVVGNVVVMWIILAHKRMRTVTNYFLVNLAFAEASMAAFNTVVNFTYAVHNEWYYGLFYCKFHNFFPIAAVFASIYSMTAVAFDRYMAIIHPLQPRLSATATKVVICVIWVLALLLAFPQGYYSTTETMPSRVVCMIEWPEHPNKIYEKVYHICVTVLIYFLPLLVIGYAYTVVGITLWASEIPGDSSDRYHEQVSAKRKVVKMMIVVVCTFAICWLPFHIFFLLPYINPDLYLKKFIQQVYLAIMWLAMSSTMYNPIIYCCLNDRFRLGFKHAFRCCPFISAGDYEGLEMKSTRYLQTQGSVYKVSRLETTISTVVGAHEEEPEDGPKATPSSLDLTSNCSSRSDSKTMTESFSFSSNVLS
Sequence of rat NK1 receptor (rat) (P14600 whole entry): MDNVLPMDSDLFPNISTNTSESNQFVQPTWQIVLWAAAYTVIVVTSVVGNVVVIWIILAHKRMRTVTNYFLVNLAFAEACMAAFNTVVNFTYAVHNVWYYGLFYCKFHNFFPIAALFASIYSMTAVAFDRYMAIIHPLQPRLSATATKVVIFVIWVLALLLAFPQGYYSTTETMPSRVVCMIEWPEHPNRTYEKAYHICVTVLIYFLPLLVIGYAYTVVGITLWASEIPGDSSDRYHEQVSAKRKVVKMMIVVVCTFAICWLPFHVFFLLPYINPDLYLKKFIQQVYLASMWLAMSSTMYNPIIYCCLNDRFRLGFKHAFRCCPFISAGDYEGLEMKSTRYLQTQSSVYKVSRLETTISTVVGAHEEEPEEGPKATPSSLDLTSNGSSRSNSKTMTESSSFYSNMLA
Sequence of µ opioid receptor of the guinea pig isolated ileum (guinea pig) (P97266 whole entry): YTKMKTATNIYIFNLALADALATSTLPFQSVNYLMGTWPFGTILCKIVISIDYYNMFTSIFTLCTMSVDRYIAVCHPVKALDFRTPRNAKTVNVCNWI
Sequence of guinea pig NK1 receptor (guinea pig) (P30547 whole entry): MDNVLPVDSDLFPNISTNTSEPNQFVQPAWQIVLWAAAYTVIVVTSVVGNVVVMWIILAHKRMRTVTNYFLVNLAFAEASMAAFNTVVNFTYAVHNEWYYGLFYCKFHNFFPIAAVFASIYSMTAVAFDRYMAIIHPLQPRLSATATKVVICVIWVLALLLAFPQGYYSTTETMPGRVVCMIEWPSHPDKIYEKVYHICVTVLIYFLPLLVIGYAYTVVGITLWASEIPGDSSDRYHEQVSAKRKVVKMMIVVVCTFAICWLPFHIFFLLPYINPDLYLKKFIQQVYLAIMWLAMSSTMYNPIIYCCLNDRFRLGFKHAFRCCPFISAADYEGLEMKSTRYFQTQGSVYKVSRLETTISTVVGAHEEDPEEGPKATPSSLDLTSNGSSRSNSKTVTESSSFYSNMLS

Tyr-D-Ala-Trp-O-3′,5′(CF3)2-Bzl (peptide)
GTP EC50 [1]: 90.9 nM
GTP EC50 [2]: 168 nM
Ki [3]: 178 nM
Ki [4]: 100 nM
Ki [5]: 0.004 nM
Ki (rat NK1 receptor (rat) [6]): 2.94 nM

DMT-D-Ala-Trp-O-3′,5′(CF3)2-Bzl (peptide)
GTP EC50 [1]: 11.5 nM
GTP EC50 [2]: 1.6 nM
Ki [3]: 0.3 nM
Ki [4]: 0.8 nM
Ki [5]: 0.016 nM
Ki (rat NK1 receptor (rat) [6]): 0.28 nM

Biphalin (peptide)
MVD (δ) IC50 [7]: 2.7 nM
MVD (δ) opioid agonist IC50 [7]: 2.7 nM

Tyr-Gly-Trp-O-3′,5′(CF3)2-Bzl (peptide)
Ki [5]: 0.003 nM
Ki (rat NK1 receptor (rat) [6]): 0.36 nM

Tyr-D-Ala-Trp-O-3′,5′(CF3)2-Bzl (NP43) (peptide)
GPI SP-antagonist Ke [8]: 49.4 nM
GPI µ-agonist IC50 [9]: 3.3 % at 1 µM
MVD δ-agonist IC50 [7]: 5.5 % at 1 µM

Tyr-Gly-Trp-O-3′,5′(CF3)2-Bzl (NP42) (peptide)
GPI µ-agonist IC50 [9]: 2.6 % at 1 µM

DMT-D-Ala-Trp-O-3′,5′(CF3)2-Bzl (NP48) (peptide)
MVD δ-agonist IC50 [7]: 408 nM

[3H]-c[D-Pen2,D-Pen5]enkephalin (peptide)
[35S]GTP-γ-S binding EC50 [1]: 1.6 nM
[35S]GTP-γ-S binding Emax [1]: 69%
[35S]GTP-γ-S binding LogEC50 [1]: -8.8
[35S]GTPγS binding EC50 [1]: 1.6 nM
[35S]GTPγS binding Emax [1]: 69%
[35S]GTPγS binding LogEC50 [1]: -8.8
Kd [10]: 0.45 nM

[3H]-[D-Ala2,NMePhe4,Gly5-ol]enkephalin (peptide)
[35S]GTP-γ-S binding LogEC50 [11]: -7.44
[35S]GTP-γ-S binding EC50 [2]: 37 nM
[35S]GTP-γ-S binding Emax [2]: 150%
[35S]GTP-γ-S binding LogEC50 [2]: -7.4
[35S]GTPγS binding EC50 [2]: 37 nM
[35S]GTPγS binding Emax [2]: 150%
[35S]GTPγS binding LogEC50 [2]: -7.4
Kd [12]: 0.5 nM

c[D-Pen2,D-Pen5]enkephalin (peptide)
Kd [13]: 0.45 nM

TyrDAlaGlyPheMetCLeuLeuTrpOBn(CF3)2 (TY021) (peptide)
GTP binding hDOR EC50 [1]: 0.26 nM
GTP binding hDOR Emax [1]: 41.1%
GTP binding rMOR EC50 [2]: 53.8 nM
GTP binding rMOR Emax [2]: 51.4%
Ki [14]: 112 nM
Ki [15]: 5 nM
Ki [16]: 0.066 nM
Ki (rat NK1 receptor (rat) [17]): 7.75 nM

Tyr-D-Ala-Gly-pFPhe-O-3′,5′(CF3)2-Bzl (NP62) (peptide)
GPI SP-antagonist Ke [8]: 51.8 nM
MVD δ-agonist IC50 [7]: 184 nM

Tyr[DCysGlyPheDCys]ProLeuTrpNHBn(CF3)2 (TY037) (peptide)
GTP binding hDOR EC50 [1]: 98.2 nM
GTP binding hDOR Emax [1]: 26%
GTP binding rMOR EC50 [2]: 52.9 nM
GTP binding rMOR Emax [2]: 8%
Ki [14]: 51.5 nM
Ki [15]: 7.8 nM
Ki (rat NK1 receptor (rat) [17]): 45.5 nM
